We go through 4 molecules from patent US20220185894A1 (F STAR THERAPEUTICS, published 2022).

In assay [1] the target is T1, mouse LAG-3 expressed on cells (mouse, UniProt Q61790 24-521).
T1 construct: also called mLAG-3; murine LAG-3 HEK
T1 sequence: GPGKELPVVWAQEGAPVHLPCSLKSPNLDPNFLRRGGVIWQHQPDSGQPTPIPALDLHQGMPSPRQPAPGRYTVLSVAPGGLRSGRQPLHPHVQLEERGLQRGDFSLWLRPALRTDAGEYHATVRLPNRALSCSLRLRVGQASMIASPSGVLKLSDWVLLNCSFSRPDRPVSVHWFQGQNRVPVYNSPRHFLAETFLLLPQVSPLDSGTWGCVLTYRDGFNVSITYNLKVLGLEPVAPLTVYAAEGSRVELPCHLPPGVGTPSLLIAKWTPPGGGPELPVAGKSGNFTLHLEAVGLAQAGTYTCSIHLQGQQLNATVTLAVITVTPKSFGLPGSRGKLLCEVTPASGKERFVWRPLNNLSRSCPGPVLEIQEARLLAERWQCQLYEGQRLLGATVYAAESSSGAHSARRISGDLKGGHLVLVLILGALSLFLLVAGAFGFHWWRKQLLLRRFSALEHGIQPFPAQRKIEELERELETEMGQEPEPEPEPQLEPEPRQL
The assay is described as follows: flow cytometry on HEK cells expressing murine LAG-3. Here is the method: The affinity of the mAb² (all containing the LALA mutations) binding to cell expressed murine LAG-3 or murine PD-L1 was determined using flow cytometry. HEK cells expressing murine LAG-3 or murine PD-L1 grown in DMEM (Life Technologies, 61965-026) containing 10% FBS (Life Technologies, 10270-1-6), 100 μg/ml Hygromycin B (Melford Laboratories Ltd, Z2475), 15 μg/ml Blasticidin (Melford Laboratories Ltd, B1105) and 1 μg/ml Doxycyclin (Sigma, D9891) were detached from tissue culture flasks using cell dissociation buffer (Life Technologies, 13151-014) and seeded in V-bottom 96-well plates (Costar, 3897) at 2×10⁵ cells/well. The plates were centrifuged at 1500 rpm for 3 min at 4° C. to pellet the cells. A dilution series of the mAb² (or control mAb) were incubated with the cells in a 60 μl volume for 1 h at 4° C. The plates were washed and secondary antibody (Anti-human Fc-488, Jackson ImmunoResearch, 109-546-098 for mAb² or Anti-Rat IgG (H+L), Alexa Fluor 488, ThermoFisher, A-11006 for anti-LAG-3 control, C9B7W) was diluted 1:1000 in PBS and 50 μl was added to the cells for 30 min at 4° C. (plates were kept in the dark). The plates were washed then cells were resuspended in 50 μl FACS Cell Fix (BD Bioscience, 340181) for 15 minutes, then washed and resuspended in 100 μl PBS containing 1 μg/ml DAPI (Biotium, 40043). The plates were read using Canto II flow cytometer (BD Bioscience). Dead cells were excluded and the fluorescence in the FITC channel (488 nm/530/30) was measured. The data was fit using log (agonist) vs response in GraphPad Prism Software. The plates were read on a BD FACSCanto II cytometer (BD Biosciences) and the data analysed using FlowJo.

The target of assay [2] is T2, human PD-L1 expressed on cells (human, UniProt Q9NZQ7 19-290). The assay is described as follows: cell-based or functional assay.
T2 sequence (Q9NZQ7 19-290 limits assumed): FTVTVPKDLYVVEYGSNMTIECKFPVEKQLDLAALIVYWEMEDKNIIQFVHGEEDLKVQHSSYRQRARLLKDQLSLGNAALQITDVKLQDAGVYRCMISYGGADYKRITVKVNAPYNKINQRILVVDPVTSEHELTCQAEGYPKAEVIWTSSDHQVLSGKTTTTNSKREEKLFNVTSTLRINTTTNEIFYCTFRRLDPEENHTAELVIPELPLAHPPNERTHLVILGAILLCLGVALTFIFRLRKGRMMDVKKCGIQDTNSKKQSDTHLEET
Assay [3] deals with T2, human PD-L1 expressed on cells. The assay is described as follows: flow cytometry on HEK cells expressing human PD-L1. As to the method:
(§1) HEK cells expressing human or cynomolgus PD-L1 grown in DMEM (Life Technologies, 61965-026) containing 10% FBS (Life Technologies, 10270-1-6), 100 μg/ml Hygromycin B (Melford Laboratories Ltd, Z2475), 15 μg/ml Blasticidin (Melford Laboratories Ltd, B1105) and 1 μg/ml Doxycyclin (Sigma, D9891) were detached from tissue culture flasks using cell dissociation buffer (Life Technologies, 13151-014) and seeded in V-bottom 96-well plates (Costar, 3897) at 2×10⁵ cells/well. The plates were centrifuged at 1500 rpm for 3 min at 4° C. to pellet the cells. A dilution series of the mAb² (or control mAb) was incubated with the cells in a 100 μl volume for 1 h at 4° C. The plates were washed and secondary antibody (Anti-human Fc-488, Jackson ImmunoResearch, 109-546-098) was diluted 1:1000 in PBS and 100 μl was added to the cells for 30 min at 4° C. (plates were kept in the dark). The plates were washed then cells were resuspended in 100 μl PBS containing 1 μg/ml DAPI (Biotium, 40043). The plates were read using Canto II flow cytometer (BD Bioscience). Dead cells were excluded and the fluorescence in the FITC channel (488 nm/530/30) was measured. The data was fit using log (agonist) vs response in GraphPad Prism Software. The plates were read on a BD FACSCanto II cytometer (BD Biosciences) and the data analysed using FlowJo.
Background: A flow cytometer gives signals particle by particle.

The target in assay [4] is T3, cynomolgus PD-L1 expressed on cells (cynomolgus monkey, UniProt Q9NZQ7 19-290 (human entry)).
T3 construct: also called cPD-L1; cyno PD-L1
T3 sequence (Q9NZQ7 other isoform, or with tags, fused parts or gaps limits assumed): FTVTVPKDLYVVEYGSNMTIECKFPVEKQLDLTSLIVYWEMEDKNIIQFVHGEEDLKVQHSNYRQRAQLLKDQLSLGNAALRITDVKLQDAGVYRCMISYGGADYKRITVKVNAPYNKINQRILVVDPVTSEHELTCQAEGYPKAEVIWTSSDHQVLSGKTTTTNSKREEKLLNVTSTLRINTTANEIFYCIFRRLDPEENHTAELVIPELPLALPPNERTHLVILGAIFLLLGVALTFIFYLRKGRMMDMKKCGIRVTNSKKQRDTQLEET
The assay is described as follows: flow cytometry on HEK cells expressing cynomolgus PD-L1. Here is the method: as §1

Assay [5] has as its target T4, human PD-L1 Fc (R&D Systems, 156-B7) (human, UniProt Q9NZQ7 19-239).
T4 construct: Bought protein; not shown: Fc tag of the bought fusion protein
Kind of assay: SPR, BIAcore T200; mAb2 captured on Protein L, PD-L1 Fc injected. Here is the method:
(§2) Protein L (Thermo, 21189) was immobilized on flow cells 1 and 2 of a Series S CM5 chip (GE Healthcare, BR-1005-30) by amine coupling (GE Healthcare, BR-1000-50) to a surface density of 2000 RU by following the manufacturer's instructions for the BIAcore T200 instrument. […] The association time was 3 min and the dissociation time was 6 min. Running buffer was HBS-P (GE Healthcare, BR-1003-68). Both flow cells were regenerated by injecting 10 mM sodium hydroxide (NaOH) at a flow rate of 100 μl/min for 20 seconds. The data were analysed by double referencing against the blank flow cell.
(§3) The binding kinetics were fit with a 1:1 Langmuir model to generate binding association (kₐ) and dissociation (kd) rates. Equilibrium binding constants (KD) were calculated by dividing the dissociation rate by the association rate for each sample. Data analysis was performed with BiaEvaluation software version 3.2.

In assay [6] the target is T5, recombinant Fc-tagged human LAG-3 (R&D Systems, 2319-L3-050) (human, UniProt P18627 23-450).
T5 construct: Bought protein; also called LAG-3 Fc; human LAG-3-Fc; not shown: Fc tag of the bought fusion protein
T5 sequence: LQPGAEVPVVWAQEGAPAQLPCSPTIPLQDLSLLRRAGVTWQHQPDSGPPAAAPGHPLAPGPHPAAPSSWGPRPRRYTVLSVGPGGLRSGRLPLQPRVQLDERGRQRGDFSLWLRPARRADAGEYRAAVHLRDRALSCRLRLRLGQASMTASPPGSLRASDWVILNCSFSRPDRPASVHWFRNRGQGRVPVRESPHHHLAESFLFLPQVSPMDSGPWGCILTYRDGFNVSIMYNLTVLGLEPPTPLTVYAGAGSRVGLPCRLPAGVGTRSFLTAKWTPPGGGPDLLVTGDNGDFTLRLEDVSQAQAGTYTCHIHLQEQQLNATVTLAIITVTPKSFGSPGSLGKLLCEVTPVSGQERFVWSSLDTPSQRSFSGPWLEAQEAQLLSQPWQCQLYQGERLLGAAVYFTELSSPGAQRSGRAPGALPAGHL
The assay is described as follows: SPR, BIAcore T200; mAb2 captured on Protein L, human LAG-3 Fc injected. As to the method:
as §2, §3
Background: SPR reads the build-up and loss of mass on a sensor chip optically.

Changes are numbered by the printed parent chain.

T4 sequence (Q9NZQ7 19-239 limits assumed): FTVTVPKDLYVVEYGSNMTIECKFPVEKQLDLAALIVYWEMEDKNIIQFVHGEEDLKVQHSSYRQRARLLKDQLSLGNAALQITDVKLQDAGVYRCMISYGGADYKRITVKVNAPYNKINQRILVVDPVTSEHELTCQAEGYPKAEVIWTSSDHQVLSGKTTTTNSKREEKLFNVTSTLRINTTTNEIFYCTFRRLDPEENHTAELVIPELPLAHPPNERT

B1: anti-mouse LAG-3/FITC mAb2 FS18-7-108-29/4420 comprising LALA mutation (bispecific antibody, human IgG1, kappa, L234A L235A)
heavy: EVKLDETGGGLVQPGRPMKLSCVASGFTFSDYWMNWVRQSPEKGLEWVAQIRNKPYNYETYYSDSVKGRFTISRDDSKSSVYLQMNNLRVEDMGIYYCTGSYYGMDYWGQGTSVTVSSASTKGPSVFPLAPSSKSTSGGTAALGCLVKDYFPEPVTVSWNSGALTSGVHTFPAVLQSSGLYSLSSVVTVPSSSLGTQTYICNVNHKPSNTKVDKKVEPKSCDKTHTCPPCPAPEAAGGPSVFLFPPKPKDTLMISRTPEVTCVVVDVSHEDPEVKFNWYVDGVEVHNAKTKPREEQYNSTYRVVSVLTVLHQDWLNGKEYKCKVSNKALPAPIEKTISKAKGQPREPQVYTLPPSWDEPWGEDVSLTCLVKGFYPSDIVVEWESNGQPENNYKTTPPVLDSDGSFFLYSKLTVPFERWMWPDEFSCSVMHEALHNHYTQKSLSLSPG
light: DVVMTQTPLSLPVSLGDQASISCRSSQSLVHSNGNTYLRWYLQKPGQSPKVLIYKVSNRFSGVPDRFSGSGSGTDFTLKISRVEAEDLGVYFCSQSTHVPWTFGGGTKLEIKRTVAAPSVFIFPPSDEQLKSGTASVVCLLNNFYPREAKVQWKVDNALQSGNSQESVTEQDSKDSTYSLSSTLTLSKADYEKHKVYACEVTHQGLSSPVTKSFNRGEC
notes: also called FS18-29/4420
Usually EC50 stands for the midpoint of the concentration-response curve. Low readings indicate higher potency in that assay, high ones lower potency in that assay. In turn, B1 showed a half-maximal effective concentration (EC50) in assay [1] of 2.29 nM.

B2: anti-mouse LAG-3/FITC mAb2 FS18-7-108-35/4420 comprising LALA mutation (bispecific antibody, human IgG1, kappa, L234A L235A)
heavy: B1 heavy with V379S
light: B1 light
notes: also called FS18-35/4420
In assay [1], B2 registered an EC50 of 2.38 nM.

B3: anti-human LAG-3/PD-L1 mAb2 FS18-7-36/84G09 with LALA mutation (bispecific antibody, human IgG1, kappa, L234A L235A)
heavy: EVQLVESGGGLVQPGRSLRLSCAASGFTFDDYAMHWVRQTPGKGLEWVSGISWKSNIIGYADSVKGRFTISRDNAKNSLYLQMNSLRAEDTALYYCARDITGSGSYGWFDPWGQGTLVTVSSASTKGPSVFPLAPSSKSTSGGTAALGCLVKDYFPEPVTVSWNSGALTSGVHTFPAVLQSSGLYSLSSVVTVPSSSLGTQTYICNVNHKPSNTKVDKKVEPKSCDKTHTCPPCPAPEAAGGPSVFLFPPKPKDTLMISRTPEVTCVVVDVSHEDPEVKFNWYVDGVEVHNAKTKPREEQYNSTYRVVSVLTVLHQDWLNGKEYKCKVSNKALPAPIEKTISKAKGQPREPQVYTLPPSWDEPWGEDVSLTCLVKGFYPSDIAVEWESNGQPENNYKTTPPVLDSDGSYFLYSKLTVPYDRWVWPDEFSCSVMHEALHNHYTQKSLSLSPG
light: DIQMTQSPSSLSASVGDRVTITCRASQSISSYLNWYQQKPGKAPKPLIYVASSLQSGVPSSFSGSGSGTDFTLTISSLQPEDFATYYCQQSYSNPITFGQGTRLEIKRTVAAPSVFIFPPSDEQLKSGTASVVCLLNNFYPREAKVQWKVDNALQSGNSQESVTEQDSKDSTYSLSSTLTLSKADYEKHKVYACEVTHQGLSSPVTKSFNRGEC
notes: also called FS18-7-36/84G09LALA
As a reminder, the Kd is the concentration at which binding is half-saturated. A word on the koff: it is a measure of how fast the partners let go of each other. As a reminder, the kon is the rate constant with which the complex forms. Regarding B3, the “Maximal IL2 release calculated as % ctrl (84G09 + 25F7)” value in assay [2] is 71.6%. The molecule also displayed a half-maximal effective concentration (EC50) in assay [3] of 3.91 nM. Further, a half-maximal effect in assay [4] (EC50) was put at 2 nM. In assay [5], the Kd was 3.5 nM, the koff was found to be 0.00056 s⁻¹ and the association rate constant (kon) was 160000 M⁻¹ s⁻¹. For the same molecule, in assay [6], the equilibrium dissociation constant (Kd) is 0.038 nM, the off-rate constant (koff) came to 0.00017 s⁻¹ and the kon worked out at 4.4e+06 M⁻¹ s⁻¹.

B4: anti-human LAG-3/PD-L1 mAb2 FS18-7-65/84G09 with LALA mutation (bispecific antibody, human IgG1, kappa, L234A L235A)
heavy: B3 heavy with Q391Y, P392A, N394Y, Y409F
light: B3 light
notes: also called FS18-7-65/84G09 LALA; F518-7-65/84G09LALA
As for B4, the “Maximal IL2 release calculated as % ctrl (84G09 + 25F7)” value in assay [2] was 70.2%. In addition, the EC50 in assay [3] came to 4 nM; in assay [4], 1.84 nM. Further, the Kd in assay [5] is 1.1 nM; in assay [6], 0.039 nM. Moreover, the off-rate (koff) in assay [5] amounted to 0.00014 s⁻¹; in assay [6], 0.00023 s⁻¹. The kon came out at 130000 M⁻¹ s⁻¹ in assay [5] and 5.9e+06 M⁻¹ s⁻¹ in assay [6].
